Series [1] concerns P100 membrane fraction of Caco-2 cells. Nature of the series: Binding of dansylated peptides to P100 fractions (peptide/particle correlation). On the procedure: Caco-2 cell membrane (P100) and cytosolic (S100) fractions were prepared using a modification of the method described in Kinsella, B. T., O'Mahony, D. J. and G. A. FitzGerald, 1994, J. Biol. Chem. 269(47): 29914–29919. Confluent Caco-2 cell monolayers (grown in 75 cm^2 flasks for up to 1 week at 37° C. and 5% CO2) were washed twice in Dulbecco's PBS (DPBS) and the cells were harvested by centrifugation at 1000 rpm after treatment with 10 mM EDTA-DPBS. The cells were washed 3 times in DPBS and the final cell pellet was resuspended in 3 volumes of ice cold HED buffer (20 mM HEPES (pH 7.67), 1 mM EGTA, 0.5 mM dithiothreitol, 1 mM phenylmethylsulphonyl fluoride (PMSF)). The cells were allowed to swell for 5 min on ice prior to homogenization for 30 sec. The homogenates were centrifuged at 40,000 rpm for 45 min at 4° C. The supernatant (S100) was removed and the pellet (P100) was resuspended in HEDG buffer (20 mM HEPES (pH 7.67), 1 mM EGTA, 0.5 mM dithiothreitol, 100 mM NaCl, 10% glycerol, 1 mM PMSF). Protein concentrations were determined using the Bradford assay (Bradford, M. M., 1976, Anal. Biochem. 72: 248–254).
Binding of peptide and/or peptide-coated PLGA particles to membrane (P100) and cytosolic (S100) fractions was assessed by detection of the dansyl moiety incorporated in the peptide. Costar ninety six well ELISA plates were coated with S100 and P100 fractions (100 μg/ml in 0.05 M NaHCO3) overnight at 4° C. The plates were blocked with 0.5% bovine serum albumin in DPBS for 1 h at room temperature and washed 3 times in 1% BSA-DPBS. Peptide-coated particles or peptides were dispersed in the same buffer and added to the plates at concentrations in the range 0.0325–0.5 mg/well. […] The plates were incubated for 1 h at room temperature. The wells were washed 3 times in 1% BSA-DPBS and 100 μl of goat anti-mouse IgGλ:HRP antibody (Southern Biotechnology 1060-05; 1:10,000) was added per well. The plates were incubated for 1 h at room temperature. After washing 3 times in 1% BSA-DPBS 100 μl of TMB substrate (3,3′,5′,5-tetramethylbenzidine; Microwell Peroxidase Substrate System (Kirkegaard and Perry Laboratories 50-76-00)) was added and the optical density was measured at 650 nm at various time intervals.
Binding of dansylated peptides to P100 fractions was assessed to determine if peptide binding was predictive of peptide-coated particle binding.

For series [2] the test system is unchanged. Nature of the series: Dansylated peptide ELISA: relative binding of PAX2 and HAX42 peptides to P100 fractions (ratio to ZElan021). The settings on record: PAX2 peptides, first column, ratio to ZElan021 = 1.00. The method in brief:
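Plates coated overnight at 4 °C with Caco-2 P100 membrane fraction (normally 100 μg/ml, pH 9.6) and blocked with 2% Marvel/PBS were incubated with dansylated peptides. Binding was detected with anti-mouse λ-HRP and TMB, read at 650 nm, and expressed relative to ZElan021.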
For orientation: ELISA stands for enzyme-linked immunosorbent assay.

For the next series, the target named is BSA (Bos taurus, UniProt P02769). Nature of the series: Receptor ELISA of phage on BSA (background control protein). It is filed as binding. On the procedure: 96 well plates were coated overnight with GIT receptor, BSA and, optionally, IDE (insulin degrading enzyme, an irrelevant His-fusion protein)or hTF. The plates were blocked for one hour with 0.5% BSA-PBS. After clarification, the amplified phage were diluted 1:100 in 1% BSA plus 0.05% Tween 20 in PBS and added to the plates. Following incubation of the plates on a rotator for 1 to 2 hours, the plates were washed 5 times with 1% BSA plus 0.05% Tween 20 in PBS. Dilute anti-M13-HRP conjugate (anti-M13 antibody linked to horse radish peroxidase (HRP)) was added to all the wells and the plate was incubated for one hour on a rotator. After the plates were washed 5 times, as described above, TMB substrate was added to the wells. The plates were read at 650 nm absorbance.
Chain of BSA (P02769 25-607): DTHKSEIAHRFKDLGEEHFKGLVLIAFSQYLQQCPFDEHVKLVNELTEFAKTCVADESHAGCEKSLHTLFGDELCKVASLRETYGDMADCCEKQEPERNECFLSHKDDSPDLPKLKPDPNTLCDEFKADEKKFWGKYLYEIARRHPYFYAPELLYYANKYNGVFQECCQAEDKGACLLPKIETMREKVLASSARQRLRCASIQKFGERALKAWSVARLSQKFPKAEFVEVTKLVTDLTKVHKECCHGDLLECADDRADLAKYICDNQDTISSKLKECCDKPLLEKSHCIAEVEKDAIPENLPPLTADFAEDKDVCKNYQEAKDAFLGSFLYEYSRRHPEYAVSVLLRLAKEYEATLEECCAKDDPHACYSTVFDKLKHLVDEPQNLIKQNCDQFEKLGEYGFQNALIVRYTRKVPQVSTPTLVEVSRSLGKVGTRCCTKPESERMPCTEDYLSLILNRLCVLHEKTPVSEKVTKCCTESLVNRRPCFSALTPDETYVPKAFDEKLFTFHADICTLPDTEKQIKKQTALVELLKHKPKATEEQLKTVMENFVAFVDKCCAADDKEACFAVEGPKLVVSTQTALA

The test system of series [3] is rat gastro-intestinal tract (closed loop). Nature of the series: Transport of preselected phage libraries in rat closed loop, detected by oligonucleotide hybridization/autoradiography. As to conditions: in words; for Presence in the intestinal samples fractions / Transport from the GIT closed loop model into the portal circulation: D2H pool. On the procedure: Four preselected phage libraries, GI-D2H, GI-hSI, GI-HPT1 and GI-hPEPT1, were constructed by pooling phage previously selected by screening random phage display libraries D38 and DC43 using the HPT1, HPEPT1, D2H and hSI receptor or binding sites located in the GIT.
In particular, phages selected in vitro to each receptor or binding site located in the GIT were amplified in E. coli, PEG-precipitated, resuspended in TBS and the titer of each phage sample was determined by plaquing in E. coli as described above. […] Using the in situ loop model described above, 0.5 ml of preselected phage library solution was injected into the tied-off portion of the duodenum/jejunum. Blood was collected into heparinized tubes from the portal vein at 0, 15, 30, 45 and 60 minutes. A blood sample was taken from the systemic circulation at the end of the experiment. Similarly, the portion of the duodenum/jejunum used for phage injection was taken at the end of the experiment.
Thirty microliters of the collected portal blood (neat and 10^−2, 10^−1, 10^−6 dilutions) was added to 30 μl E. coli K91Kan cells (overnight culture) and incubated at 37° C. for 10 min. Subsequently, 3 ml of top agarose was added and the samples were plated for plaques. One hundred microliters of the collected portal blood was added to 100 μl of E. coli K91Kan. Five milliliters of LB medium was then added and the samples were incubated at 37° C. overnight in a rotating microbial incubator. The E. coli was removed by centrifugation and the amplified phage supernatant samples were either titered directly or were PEG-precipitated, resuspended in TBS and titered. Following titration of the amplified phage, samples containing phage from each set of animals were combined, adjusting the titer of each sample to the same titer, and were plated for plaques on LB agar lates (22 cm^2 square plates). Either 12,000 or 24,000 phage were lated for plaques.
Thirty microliters of the collected systemic blood (neat and 10^−2, 10^−1, 10^−6 dilutions) was added to E. coli K91Kan cells, incubated at 37° C. for 10 min. Three ml of top agarose was then added and the samples were plated for plaques. One hundred microliters of the collected systemic blood was added to 100 μl of E. coli K91Kan, incubated at 37° C. for 10 min. Five milliliters of LB medium was then added and the samples were incubated at 37° C. overnight in a rotating microbial incubator. The E. coli was removed by centrifugation and the amplified phage supernatant samples were either titered directly or were PEG-precipitated, resuspended in TBS and titered. Following titration of the amplified phage, samples containing phage from each set of animals were combined, adjusting the titer of each sample to the same titer, and were plated for plaques on LB agar plates (22 cm^2 square plates). Either 12,000 or 24,000 phage were plated for plaques.
The intestinal tissue portion used in each closed loop was excised. […] Alternatively, the tissue (in PBS supplemented with protease inhibitors) was homogenized in an Ultra Thorex homogenizer, washed 3 times in PBS containing protease inhibitors and resuspended in PBS containing protease inhibitors (Int-G samples). In each case, serial dilutions (neat and 10^−2, 10^−4, 10^−6 dilutions) of the tissue homogenate was titered in E. coli.
The phage amplified from the portal blood, systemic blood and intestinal tissue was plated for plaques. […] The filters were air-dried, and the DNA was cross-linked to the filter (UV crosslinking: 2 min, high setting). The filters were incubated in pre-hybridization buffer (6×SSC, 5× Denhardt's solution, 0.1% SDS, […] yeast tRNA) at 40° C.–45° C. for at least 60 min.
Synthetic oligonucleotides, (22-mers), complimentary to regions coding for the receptor or binding sites used to create the preselected phage library, were synthesized (see Table 14 below).

Series [4] addresses bovine serum albumin (bovine) (UniProt P02769). Nature of the series: phage ELISA on coated BSA.
Series [5] deals with T1, recombinant hPEPT1 receptor domain (human PEPT1, amino acid residues 391-571), His-tag fusion protein (human) (UniProt P46059).
T1 sequence: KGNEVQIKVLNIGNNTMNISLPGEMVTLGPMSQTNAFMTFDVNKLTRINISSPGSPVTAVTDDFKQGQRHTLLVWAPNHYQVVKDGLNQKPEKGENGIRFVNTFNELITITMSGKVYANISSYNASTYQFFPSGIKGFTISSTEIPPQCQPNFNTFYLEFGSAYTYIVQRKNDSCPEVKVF
Nature of the series: phage ELISA on coated hPEPT1.

Series [6] addresses T1, recombinant hPEPT1 receptor domain (human PEPT1, amino acid residues 391-571), His-tag fusion protein (human). Nature of the series: phage ELISA, OD on hPEPT1 over OD on BSA.
Where [7] appears, read: Table 3, two pans on D2H, third on Caco-2 snapwells.
[8] abbreviates: Table 1, phage panned on hSI, 650 nm.

Ends that are not written are not given here. * marks the point of attachment. Dansyl = CN(C)c1cccc2c(S(=O)(=O)*)cccc12

Chain of bovine serum albumin (bovine) (P02769 25-607 limits assumed): as the sequence (P02769 25-607) above

As to “H-K(Dansyl)STPPSREAYSRPYSVDSDSDTNAKHSSHNRRLRTRSRPNG-NH2 [ZElan018]”, the “Binding of dansylated peptide to P100 fraction” value in series [1] (repeat assay, compared with scrambled PAX2 control) was “indistinguishable from the scrambled PAX2 control”. Also, the “Binding value at 20 μg/ml” value in series [2] (20 μg/ml) is listed as −0.33. The “Binding value at 50 μg/ml” value in series [2] (50 μg/ml) came out at 0.95.
Regarding “SQGSKQCMQYRTGRLTVGSEYGCGMNPARHATPAYPARLLPRYR [DCX11]”, the BSA in the series with BSA (setting [7]) was determined as 0.071 OD. In series [3], the “Presence in the intestinal samples fractions” value is given as “found” and the “Transport from the GIT closed loop model into the portal circulation” value was “preferably transported”.
For “RYKHDIGCDAGVDKKSSSVRGGCGAHSSPPRAGRGPRGTMVSRL [DCX8]” the same measures were 0.063 OD, “to a much lesser extent” and “transported”.
The molecule “SPCGGSWGRFMQGGLFGGRTDGCGAHRNRTSASLEPPSSDY [SNi34]” displayed a BSA with BSA (setting [8]) of 0.115 OD.
The same measure, in the same setting: to “RVGQCTDSDVRRPWARSCAHQGCGAGTRNSHGCITRPLRQASAH [SNi10]” belongs 0.051 OD.
Consider “SDHALGTNLRSDNAKEPGDYNCCGNGNSTGRKVFNRRRPSAIPT (not fully specified; cysteine pairing not given here) [HAX42]”, for which, in the series with BSA (Table 5, phage panned on HPT-1), the BSA is listed as 0.071 OD. The “Presence in the portal or systemic circulation” value in series [3] (HPT1 pool, PAX2 used at 4x concentration) was “found in the portal and systemic circulation”. In addition, the Peptide/particle binding correlation entry in series [1] (in words) is recorded as “correlated well”.
As for RWGWERSPSDYDSDMDLGARRYATRTHRAPPRVLKAPLP (peptide, not shown: large carriers, also: displayed as N-terminal pIII fusion on M13 phage) [phage 5PAX7], the OD is 0.037 OD 650 nm in series [4] and 0.171 OD 650 nm in series [5]. Moreover, in series [6], the PEPT1/BSA worked out at 5.
As for SYCRVKGGGEGGHTDSNLARSGCGKVARTSRLQHINPRATPPSR (peptide, not shown: large carriers) [phage PAX15], the OD amounted to 0.079 OD 650 nm in series [4] and 0.301 OD 650 nm in series [5]. The PEPT1/BSA in series [6] stood at 4.
For RWPSVGYKGNGSDTIDVHSNDASTKRSLIYNHRRPLFP (peptide, not shown: large carriers) [phage PAX9] the same measures were 0.079 OD 650 nm, 0.312 OD 650 nm and 4.
For RPKNVADAYSSQDGAAAEETSHASNAARKSPKHKPLRRP (peptide, not shown: large carriers, also: displayed as N-terminal pIII fusion on M13 phage) [phage 5PAX3] the same measures were 0.04 OD 650 nm, 0.173 OD 650 nm and 4.
For RGSTGTAGGERSGVLNLHTRDNASGSGFKPWYPSNRGHK (peptide, not shown: large carriers, also: displayed as N-terminal pIII fusion on M13 phage) [phage 5PAX5] the same measures were 0.036 OD 650 nm, 0.15 OD 650 nm and 4.

B1: phage PAX43 (peptide, not shown: large carriers)
peptide: RWCEKHKFTAARCSAGAGFERDASRPPQPAHRDNTNRNA
modifications: cysteine pairing not given here; also: displayed as N-terminal pIII fusion on M13 phage
Consider B1, for which the results for the OD in series [4] and in series [5] were 0.069 OD 650 nm and 0.345 OD 650 nm, respectively. Further, in series [6], the PEPT1/BSA came to 5.

(Values after US7053177B1, “Random peptides that bind to gastro-intestinal tract (GIT) transport receptors and related methods” (Cytogen Corporation, priority 1997, dated 2006).)
